Assay results taken from patent US20230265151A1, “GIP/GLP1 CO-AGONIST COMPOUNDS” (priority 2020, published 2023).
Changes are numbered by the printed parent chain.

B1: Y-Aib-EGT-αMeF(2F)-TSD-4Pal-SI-αMeL-LD-Orn-IAQ-Aib-EFIK((2-[2-(2-Amino-ethoxy)-ethoxy]-acetyl)2-(γ-Glu)-CO-(CH2)12-CO2H)-αMeY-LIK((2-[2-(2-Amino-ethoxy)-ethoxy] … (peptide)
peptide: YXEGTXTSDXSIXLDXIAQXEFIKXLIKGGPSSGAPPPS
modifications: Aib2, αMeF(2F)6, 4Pal10, αMeL13, Orn16, Aib20, K24(Z1), αMeY25, K28(Z1), C-term NH2; Z1=AEEA2-(γ-Glu)-CO-(CH2)12-CO2H
B2: Y-Aib-EGT-αMeF(2F)-TSD-4Pal-Aib-I-αMeL-LD-Orn-K((2-[2-(2-Amino-ethoxy)-ethoxy]-acetyl)2-(γ-Glu)-CO-(CH2)10-CH3)AQ-Aib-TFI-(D-Glu)-αMeY-LIK((2-[2-(2-Amino-ethoxy … (peptide)
peptide: B1 peptide with S11X, I17K, E21T, K24X
modifications: Aib2, αMeF(2F)6, 4Pal10, Aib11, αMeL13, Orn16, K17(Z1), Aib20, D-Glu24, αMeY25, K28(Z1), C-term NH2; Z1=AEEA2-(γ-Glu)-CO-(CH2)10-CH3
notes: T at position 21
B3: Y-Aib-EGT-αMeF(2F)-TSDK((2-[2-(2-Amino-ethoxy)-ethoxy]-acetyl)3-(γ-Glu)-CO-(CH2)10-CH3)-Aib-I-αMeL-LD-Orn-K((2-[2-(2-Amino-ethoxy)-ethoxy]-acetyl)3-(γ-Glu)-CO-( … (peptide)
peptide: YXEGTXTSDKXIXLDXKAQXEFIXXLIEGGPSSGAPPPS
modifications: Aib2, αMeF(2F)6, K10(Z1), Aib11, αMeL13, Orn16, K17(Z1), Aib20, D-Glu24, αMeY25, C-term NH2; Z1=AEEA3-(γ-Glu)-CO-(CH2)10-CH3
B4: Y-Aib-EGT-αMeF(2F)-TSD-4Pal-Aib-I-αMeL-LD-Orn-K((2-[2-(2-Amino-ethoxy)-ethoxy]-acetyl)2-(γ-Glu)-CO-(CH2)10-CH3)AQ-Aib-K((2-[2-(2-Amino-ethoxy)-ethoxy]-acetyl)2- … (peptide)
peptide: B3 peptide with K10X, E21K
modifications: Aib2, αMeF(2F)6, 4Pal10, Aib11, αMeL13, Orn16, K17(Z1), Aib20, K21(Z1), D-Glu24, αMeY25, C-term NH2; Z1=AEEA2-(γ-Glu)-CO-(CH2)10-CH3
B5: Y-Aib-EGT-αMeF(2F)-TSD-4Pal-Aib-I-αMeL-LD-Orn-K((2-[2-(2-Amino-ethoxy)-ethoxy]-acetyl)-(γ-Glu)-CO-(CH2)12-CO2H)AQ-Aib-K((2-[2-(2-Amino-ethoxy)-ethoxy]-acetyl)-( … (peptide)
peptide: B3 peptide with K10X, E21K
modifications: Aib2, αMeF(2F)6, 4Pal10, Aib11, αMeL13, Orn16, K17(Z1), Aib20, K21(Z1), D-Glu24, αMeY25, C-term NH2; Z1=AEEA-(γ-Glu)-CO-(CH2)12-CO2H
B6: Y-Aib-EGT-αMeF(2F)-TSD-4Pal-Aib-I-αMeL-LD-Orn-K((2-[2-(2-Amino-ethoxy)-ethoxy]-acetyl)-(γ-Glu)-(10-(4-carboxyphenoxy)decanoyl))AQ-Aib-K((2-[2-(2-Amino-ethoxy)-e … (peptide)
peptide: B3 peptide with K10X, E21K
modifications: Aib2, αMeF(2F)6, 4Pal10, Aib11, αMeL13, Orn16, K17(Z1), Aib20, K21(Z1), D-Glu24, αMeY25, C-term NH2; Z1=AEEA-(γ-Glu)-(10-(4-carboxyphenoxy)decanoyl)
B7: Y-Aib-EGT-αMeF(2F)-TSD-4Pal-SI-αMeL-LD-Orn-IAQ-Aib-K((2-[2-(2-Amino-ethoxy)-ethoxy]-acetyl)2-(γ-Glu)-CO-(CH2)12-CO2H)FI-(D-Glu)-αMeY-LIEGGPSSGAPPPSK((2-[2-(2-Am … (peptide)
peptide: YXEGTXTSDXSIXLDXIAQXKFIXXLIEGGPSSGAPPPSK
modifications: Aib2, αMeF(2F)6, 4Pal10, αMeL13, Orn16, Aib20, K21(Z1), D-Glu24, αMeY25, K40(Z1), C-term NH2; Z1=AEEA2-(γ-Glu)-CO-(CH2)12-CO2H
B8: Y-Aib-EGT-αMeF(2F)-TSD-4Pal-Aib-I-αMeL-LD-Orn-K((2-[2-(2-Amino-ethoxy)-ethoxy]-acetyl)2-(γ-Glu)-CO-(CH2)10-CH3)AQ-Aib-EFI-(D-Glu)-αMeY-LIEGGPSSGAPPPSK((2-[2-(2- … (peptide)
peptide: B7 peptide with S11X, I17K, K21E
modifications: Aib2, αMeF(2F)6, 4Pal10, Aib11, αMeL13, Orn16, K17(Z1), Aib20, D-Glu24, αMeY25, K40(Z1), C-term NH2; Z1=AEEA2-(γ-Glu)-CO-(CH2)10-CH3
B9: Y-Aib-EGT-αMeF(2F)-TSD-4Pal-SI-αMeL-LD-Orn-K((2-[2-(2-Amino-ethoxy)-ethoxy]-acetyl)2-(γ-Glu)-CO-(CH2)10-CH3)AQ-Aib-EFI-(D-Glu)-αMeY-LIEGGP S SGAPPP … (peptide)
peptide: B7 peptide with I17K, K21E
modifications: Aib2, αMeF(2F)6, 4Pal10, αMeL13, Orn16, K17(Z1), Aib20, D-Glu24, αMeY25, K40(Z1), C-term NH2; Z1=AEEA2-(γ-Glu)-CO-(CH2)10-CH3
B10: Y-Aib-EGT-αMeF(2F)-TSDY-Aib-I-αMeL-LD-Orn-K((2-[2-(2-Amino-ethoxy)-ethoxy]-acetyl)2-(γ-Glu)-CO-(CH2)10-CH3)AQ-Aib-EFI-(D-Glu)-αMeY-LIEGGPSSGAPPPSK((2-[2-(2-Amin … (peptide)
peptide: B7 peptide with X10Y, S11X, I17K, K21E
modifications: Aib2, αMeF(2F)6, Aib11, αMeL13, Orn16, K17(Z1), Aib20, D-Glu24, αMeY25, K40(Z1), C-term NH2; Z1=AEEA2-(γ-Glu)-CO-(CH2)10-CH3

The binders below were run against T1, human glucagon receptor (human, UniProt P47871 26-477) (assay: SPA competition vs [125I]-Gcg, hGcgR membranes).
T1 construct: whole, on cells; also called hGCGR; hGcgR
T1 sequence (P47871 26-477): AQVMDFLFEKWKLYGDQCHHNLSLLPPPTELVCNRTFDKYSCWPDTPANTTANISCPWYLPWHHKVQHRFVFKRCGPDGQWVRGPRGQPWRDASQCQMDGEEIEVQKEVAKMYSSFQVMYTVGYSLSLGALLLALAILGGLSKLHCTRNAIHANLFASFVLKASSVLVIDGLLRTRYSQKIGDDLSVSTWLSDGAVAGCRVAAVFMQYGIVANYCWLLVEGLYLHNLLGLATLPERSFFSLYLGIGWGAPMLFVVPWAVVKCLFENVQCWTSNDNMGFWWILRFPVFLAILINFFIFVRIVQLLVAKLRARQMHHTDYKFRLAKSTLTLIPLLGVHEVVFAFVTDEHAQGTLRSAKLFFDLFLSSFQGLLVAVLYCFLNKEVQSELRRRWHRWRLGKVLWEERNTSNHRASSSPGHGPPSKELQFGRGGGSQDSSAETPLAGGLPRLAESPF
Experimental: The binding buffer contains 25 mM 4-(2-hydroxyethyl)-1-piperazineethanesulfonic acid (HEPES), pH 7.4, 2.5 mM CaCl₂, 1 mM MgCh, 0.1% (w/v) bacitracin (Research Products), 0.003% (w/v) Polyoxyethylenesorbitan monolaurate (TWEEN®-20), and Roche Complete™ Protease Inhibitors without EDTA. […] Plates are sealed and mixed on a plate shaker (setting 6) for 1 minute and read with a PerkinElmer Trilux MicroBeta® scintillation counter after 12 hours of incubation/settling time at room temperature.
Data are analyzed using four-parameter (curve maximum, curve minimum, IC₅₀, Hill slope) nonlinear regression routines (Genedata Screener, version 12.0.4, Genedata AG, Basal, Switzerland). […] Values for Kᵢ are reported as the geometric mean, with error expressed as the standard error of the mean (SEM) and n is equal to the number of independent replicates (determined in assays performed on different days).

Q: For B1, which Ki is on record?
A: Its Ki is 151 nM.

Q: B2 was tested. Which Ki did it give?
A: Its Ki is 60.6 nM.

Q: For B3, which Ki is on record?
A: The Ki was 345 nM.

Q: For B4, which Ki is on record?
A: Its Ki is 2.91 nM.

Q: For B5, which Ki is on record?
A: Its Ki is 230 nM.

Q: Which Ki does the source give for B6 here?
A: Its Ki is 118 nM.

Q: With B7 as the binder, how does the Ki read?
A: The Ki was 206 nM.

Q: How did the Ki turn out when B8 was run?
A: Its Ki is 6.28 nM.

Q: Which Ki does the source give for B9 here?
A: Its Ki is 13.9 nM.

Q: How did the Ki turn out when B10 was run?
A: The Ki was 2.84 nM.

Each binder was assayed against T2, human GLP-1 receptor (human, UniProt P43220 24-463) (assay: SPA competition vs [125I]-GLP-1, hGLP-1R membranes).
T2 construct: whole, on cells; also called hGLP-1R; human glucagon-like peptide-1 receptor
Procedure, shortened: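 Competition binding in 25 mM HEPES pH 7.4, 2.5 mM CaCl₂, 1 mM MgCl₂, 0.1% bacitracin, 0.003% TWEEN-20, EDTA-free protease inhibitors. IC₅₀ from four-parameter nonlinear fit; Kᵢ given as geometric mean ± SEM, n = independent replicates on different days.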

Q: How did the Ki turn out when B1 was run?
A: The Ki was 1.67 nM.

Q: Which Ki does the source give for B2 here?
A: The Ki was 0.265 nM.

Q: With B3 as the binder, how does the Ki read?
A: The Ki was 0.198 nM.

Q: For B4, which Ki is on record?
A: Its Ki is 0.234 nM.

Q: How did the Ki turn out when B5 was run?
A: Its Ki is 1.85 nM.

Q: With B6 as the binder, how does the Ki read?
A: The Ki was 0.673 nM.

Q: How did the Ki turn out when B7 was run?
A: Its Ki is 2.8 nM.

Q: B8 was tested. Which Ki did it give?
A: Its Ki is 0.168 nM.

Q: With B9 as the binder, how does the Ki read?
A: Its Ki is 0.194 nM.

Q: Which Ki does the source give for B10 here?
A: Its Ki is 0.137 nM.

These binders were tested against T3, human GIP receptor (human, UniProt P48546 22-466) (assay: SPA competition vs [125I]-GIP, hGIPR membranes).
T3 construct: whole, on cells; also called hGIPR; human glucose-dependent insulinotropic polypeptide receptor
T3 sequence (looked up): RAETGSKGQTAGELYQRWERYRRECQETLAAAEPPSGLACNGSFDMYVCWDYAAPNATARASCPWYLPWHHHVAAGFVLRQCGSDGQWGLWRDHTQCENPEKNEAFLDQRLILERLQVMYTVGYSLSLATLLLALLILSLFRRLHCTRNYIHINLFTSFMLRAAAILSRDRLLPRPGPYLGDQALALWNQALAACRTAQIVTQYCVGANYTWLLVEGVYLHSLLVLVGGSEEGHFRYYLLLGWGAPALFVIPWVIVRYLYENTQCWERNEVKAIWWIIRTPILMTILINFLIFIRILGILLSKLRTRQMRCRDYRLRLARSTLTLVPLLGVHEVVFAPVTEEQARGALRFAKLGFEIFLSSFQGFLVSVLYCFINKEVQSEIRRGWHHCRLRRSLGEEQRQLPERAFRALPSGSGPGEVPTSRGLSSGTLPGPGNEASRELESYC

Q: How did the Ki turn out when B1 was run?
A: Its Ki is 0.12 nM.

Q: With B2 as the binder, how does the Ki read?
A: Its Ki is 0.0166 nM.

Q: Which Ki does the source give for B3 here?
A: Its Ki is 0.0245 nM.

Q: For B4, which Ki is on record?
A: The Ki was 0.0162 nM.

Q: Which Ki does the source give for B5 here?
A: The Ki was 0.0782 nM.

Q: How did the Ki turn out when B6 was run?
A: The Ki was 0.046 nM.

Q: With B7 as the binder, how does the Ki read?
A: Its Ki is 0.107 nM.

Q: B8 was tested. Which Ki did it give?
A: Its Ki is 0.0163 nM.

Q: B9 was tested. Which Ki did it give?
A: Its Ki is 0.0291 nM.

Q: For B10, which Ki is on record?
A: The Ki was 0.0228 nM.
